Source: article PMC1253830

Tests used:
Assay in all cases: two-hybrid
[1] = biological target: pGBKT7-CcLim15 (Coprinus cinereus Lim15/Dmc1, residues 1-345, fused to the GAL4 DNA-binding domain) (Coprinus cinereus)
[2] = biological target: pGBKT7-CcLim15CT 104-345 (Coprinus cinereus)
[3] = biological target: pGBKT7-CcLim15NT 1-104 (Coprinus cinereus)

Row | β-galactosidase activity [1] | β-galactosidase activity [2] | β-galactosidase activity [3] | Substance
1 | 16.5 | 3.49 | < 1 | pGADT7-CcTopIICT 1066-1569 (domain or fragment)
2 | < 1 | – | – | pGADT7-CcTopIIMD 751-1065 (domain or fragment)
3 | < 1 | – | – | pGADT7-CcTopIINT 1-750 (domain or fragment)
